# In patent publication US20260137799A1, “ANTI-MUC1* ANTIBODY DRUG COMPLEXES AND USES THEREOF” (Minerva Biotechnologies Corporation, priority 2023, published 2026):
# B1: 3C2B1: anti-MUC1* monoclonal antibody that bound to the PSMGFR peptide (antibody, V domains shown)
# VH: EVMLVESGGGLVKPGGSLKLSCAASGITFSTYTMSWVRQTPEKRLEWVATISTGGDKTYYSDSVKGRFTISRDNAKNNLYLQMSSLRSEDTALYYCARGTTAMYYYAMDYWGQGTSVTVSS
# VL: DIVLTQSPASLAVSLGQRATISCRASKSISTSDYNYIHWYQQKPGQPPKLLIYLASNLESGVPARFSGSGSGTDFTLNIHPVEEEDAATYYCQHSRELPLTFGAGTKLELK
# Key:
# [1] = tested on: HPAFII pancreatic cancer cells; experiment: Antibody internalization (pHrodo Deep Red), HPAFII; type: cell-based, human
# Description: Internalization of antibody 3C2B1 into HPAFII pancreatic cancer cells (FIGS. 5A-5G) and OE19 esophageal cancer cells (FIGS. 5H-5N) was detectable after 8 hours and nearly complete at 16 hours. The results are quantified in FIG. 5O.
# Antibodies C2 and 3C2B1 were coupled to a pH sensitive fluorophore using the pHrodo Deep Red TFP Ester kit (Thermo cat #P35356), according to manufacturer instructions. Cancer cells were seeded at ˜50,000 cells/well onto μ-Slide 8-well tissue culture-treated, chambered coverslip wells (Ibidi 80806) in their recommended media with 10% FBS. Cells were cultured for 48 hours. Slides were transferred into microscope chamber (37° C.—5% CO2) and equilibrated for ˜30 minutes. The pHrodo Deep Red coupled antibody was then diluted to a concentration of 200 to 300 μg/mL into pre-warmed media supplemented with 10% FBS. Media was removed from the chamber slides and the diluted antibodies were separately added. […]
# (§1) Internalization of the fluorescently labeled antibodies was quantified as follows. […] The integrated pixel density (mean gray-scale value×area) was then measured by the ImageJ software. Positively-stained cells were manually counted and the integrated pixel density was divided by the number of positive cells to yield “Pixel Intensity per positive cell”.
# [2] = tested on: T47D breast cancer cells (T47D-wt); experiment: Antibody internalization (pHrodo Deep Red), T47D-wt; type: cell-based, human
# Description: Antibodies C2 and 3C2B1 were tested for their ability to be internalized by T47D breast cancer cells (T47D-wt) or T47D cells that were engineered to express high levels of a recombinant MUC1* polypeptide with a 45 amino acid extracellular domain (T47D-MUC1*45), as described in WO2010042562 and WO2010042891. […] C2 internalization was detected within 2.5 hours in T47D-wt cells (FIGS. 3A-3F) and was increased by MUC1*45 expression (FIGS. 3G-3L). […] Unexpectedly, MUC1*45 expression inhibited 3C2B1 internalization (FIG. 3S-3X).
# Antibodies C2 and 3C2B1 were coupled to a pH sensitive fluorophore using the pHrodo Deep Red TFP Ester kit (Thermo cat #P35356), according to manufacturer instructions. Cancer cells were seeded at ˜50,000 cells/well onto μ-Slide 8-well tissue culture-treated, chambered coverslip wells (Ibidi 80806) in their recommended media with 10% FBS. Cells were cultured for 48 hours. Slides were transferred into microscope chamber (37° C.—5% CO2) and equilibrated for ˜30 minutes. […]
# as §1
# [3] = Toxicity in animal studies; type: in vivo; details: each antibody incorporated into several ADC formats
# Excerpt: Exatecans and deruxtecans can also have bystander effects. […] It is not completely clear whether these side effects are due to the payload or to the HER2 target, which is also expressed on normal lung and normal heart. The first two patients treated with a HER2 targeting CAR T cell product died shortly after the infusion. […] More recently, yet another patient died after being treated with a different HER2-targeting ADC. […] 32CB1, C2 and 20A10 unexpectedly have an extremely high degree of cancer specificity and elicited no toxicities in animal studies, where each antibody was incorporated into several ADC formats.
# [4] = target: PSMGFR C-10 peptide (SEQ ID NO: 3) (Homo sapiens, UniProt P15941); experiment: ELISA binding to PSMGFR C-10 peptide
# Excerpt: Cancer selective anti-MUC1* antibodies bind to a membrane proximal conformational epitope within the MUC1* extracellular domain, as described in WO 2020/146902.
# (§2) The 3C2B1 epitope was mapped more precisely with additional PSMGFR peptide variants (FIGS. 2A, 2B).
# H1975-MUC1*45 cells = experiment: Antibody internalization (pHrodo Deep Red), H1975-MUC1*45; type: cell-based, human
# Description: Antibodies C2 and 3C2B1 were tested for their ability to be internalized by H1975 lung cancer cells (H1975-wt) and H1975 cells that were engineered to express high levels of a recombinant MUC1* polypeptide with a 45 amino acid extracellular domain (H1975-MUC1*45). In contrast to the T47D breast cancer cells, H1975-wt cells internalized 3C2B1 faster than they internalized C2 (FIGS. 4A1-4A28, 4C1-4C28 and 4E). Two (2) hours post incubation with H1975-wt cells, […] the cells had internalized C2. […] Similar to the T47D cells, MUC1*45 expression increased the internalization rate of C2 and decreased the internalization rate of 3C2B1 (FIGS. 4B1-4B28, 4D1-4D28 and 4E).
# Antibodies C2 and 3C2B1 were coupled to a pH sensitive fluorophore using the pHrodo Deep Red TFP Ester kit (Thermo cat #P35356), according to manufacturer instructions. Cancer cells were seeded at ˜50,000 cells/well onto μ-Slide 8-well tissue culture-treated, chambered coverslip wells (Ibidi 80806) in their recommended media with 10% FBS. Cells were cultured for 48 hours. Slides were transferred into microscope chamber (37° C.—5% CO2) and equilibrated for ˜30 minutes. The pHrodo Deep Red coupled antibody was then diluted to a concentration of 200 to 300 μg/mL into pre-warmed media supplemented with 10% FBS. Media was removed from the chamber slides and the diluted antibodies were separately added. Fluorescent (655 nm) and phase contrast images at were collected every 10 min for 12h or 16 h with a Leica Thunder Live Cell 3D microscope.
# Internalization of the fluorescently labeled antibodies was quantified as follows. Images were imported into ImageJ. The selection tool was used to draw a region of interest (ROI) on the image. The integrated pixel density (mean gray-scale value×area) was then measured by the ImageJ software. Positively-stained cells were manually counted and the integrated pixel density was divided by the number of positive cells to yield “Pixel Intensity per positive cell”.
# [5] = target: PSMGFR N-19 C-5 (SEQ ID NO: 159) (Homo sapiens, UniProt P15941); experiment: Epitope mapping, binding to PSMGFR N-19 C-5 peptide
# Excerpt: FIG. 2B quantifies binding of the 3C2B1 anti-MUC1* antibody to the peptides of FIG. 2A.
# as §2
# breast cancer specimens = experiment: IHC of tissue microarray, breast cancer; type: binding, human; details: 109 specimens, antibodies at 15 μg/mL
# Excerpt: Tissue microarrays are typically made up of hundreds of tissue specimens, where each specimen in the array comes from a different patient. The breast cancer array contained patient specimens of all types of invasive breast cancers, including less common forms such as carcinomas with medullary features and papillary carcinomas. The lung cancer array contained specimens from patients diagnosed with squamous cell carcinoma, adenocarcinoma, mucinous adenocarcinoma, adenosquamous carcinoma and large cell carcinoma. The pancreatic cancer tissue microarray contained specimens from patients with ductal adenocarcinomas.
# Of the 109 breast cancer specimens, 56 stained positive with C2, 3C2B1, or both. Twenty-two (22) of the specimens stained robustly with C2 and stained less well or not at all with 3C2B1. The converse, 3C2B1 staining better than C2, was true in only 5 of the 109 specimens. Twenty-nine (29) specimens were stained essentially the same with C2 and 3C2B1 antibody.
# Cancerous tissue arrays were purchased from Tissue Array (Derwood, MD). After deparaffinization, antigen retrieval (pH 6.0) was performed for 10 min. The sections incubated in blocking buffer (10% normal goat serum and 5% BSA in TBS) at room temperature for 1 hr before incubating in either C2 or 3C2B1 in 1% BSA-TBS overnight at 4° C. In this particular assay, both antibodies were used at a concentration of 15 μg/mL. […]
# Sequence of PSMGFR C-10 peptide (SEQ ID NO: 3) (P15941 1110-1144 limits assumed): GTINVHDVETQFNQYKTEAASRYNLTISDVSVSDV
# Sequence of PSMGFR N-19 C-5 (SEQ ID NO: 159) (P15941 1129-1149 limits assumed): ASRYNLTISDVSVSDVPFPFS
molecule,measurement,setting,value
B1,time after which internalization was detectable,[1],8 h
same,time at which internalization was nearly complete,[1],16 h
same,internalization rate compared to C2,[2],internalized more slowly
same,toxicities in animal studies,[3],no toxicities
same,binding to PSMGFR C-10,[4],do not bind
same,time by which essentially all the cells had internalized the antibody,H1975-MUC1*45 cells; H1975-MUC1*45 cells,8 h
same,effect of MUC1*45 expression on internalization rate,H1975-MUC1*45 cells; H1975-MUC1*45 vs H1975-wt,decreased
same,binding to N-19 C-5 variant PSMGFR peptide,[5],bound
same,3C2B1 > C2 (number of specimens stained better with 3C2B1),breast cancer specimens,5
